The values that follow come from patent US20250059270A1.

Test [1] deals with human IL-6R on HEK-Blue IL6 reporter cells (human) (UniProt P08887). Briefly: cell-based or functional assay.
The target of the next test is hyper IL-6. The experiment in a line: cell-based or functional assay.

Some results are limits rather than exact numbers.

Chain of human IL-6R on HEK-Blue IL6 reporter cells (human) (P08887 20-468): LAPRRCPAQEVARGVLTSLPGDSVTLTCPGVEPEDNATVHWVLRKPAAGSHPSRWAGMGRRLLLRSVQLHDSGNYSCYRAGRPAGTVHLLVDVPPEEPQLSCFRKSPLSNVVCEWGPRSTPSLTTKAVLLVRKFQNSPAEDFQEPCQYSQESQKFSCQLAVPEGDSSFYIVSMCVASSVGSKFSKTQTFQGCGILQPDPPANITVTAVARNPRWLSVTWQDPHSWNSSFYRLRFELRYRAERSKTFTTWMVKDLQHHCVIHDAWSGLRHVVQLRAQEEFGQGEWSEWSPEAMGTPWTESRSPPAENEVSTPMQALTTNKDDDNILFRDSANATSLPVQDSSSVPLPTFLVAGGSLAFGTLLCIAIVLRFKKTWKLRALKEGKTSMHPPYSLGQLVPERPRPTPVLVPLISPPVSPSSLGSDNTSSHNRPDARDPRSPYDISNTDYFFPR

B1: Tocilizumab (antibody, part only; not given: constant regions, V domains shown, not shown: another chain or arm of the molecule)
VH: QVQLQESGPGLVRPSQTLSLTCTVSGYSITSDHAWSWVRQPPGRGLEWIGYISYSGITTYNPSLKSRVTMLRDTSKNQFSLRLSSVTAADTAVYYCARSLARTTAMDYWGQGSLVTVSS
VL: DIQMTQSPSSLSASVGDRVTITCRASQDISSYLNWYQQKPGKAPKLLIYYTSRLHSGVPSRFSGSGSGTDFTFTISSLQPEDIATYYCQQGNTLPYTFGQGTKVEIK
In test [1], B1 returned an IC50, HEK-Blue IL6 reporter cells, 20 pM IL-6 of 1490 pM; an IC50, cis-signaling, HEK-Blue IL6 cells, 20 pM free IL-6 of 12.9 nM; an IC90, HEK-Blue IL6 reporter cells, 20 pM IL-6 of 23700 pM. In addition, in the test with hyper IL-6, the trans-signaling, HEK-Blue IL6 cells, 200 pM hyper IL-6 was > 1 µM.
